Assay results from patent CN112851810A (BEIJING GUANGWEI BIOTECHNOLOGY CO LTD, dated 2021).

B1: Rituximab (antibody, V domains shown)
VH: QVQLQQPGAELVKPGASVKMSCKASGYTFTSYNMHWVKQTPGRGLEWIGAIYPGNGDTSYNQKFKGKATLTADKSSSTAYMQLSSLTSEDSAVYYCARSTYYGGDWYFNVWGAGTTVTVSA
VL: QIVLSQSPAILSASPGEKVTMTCRASSSVSYIHWFQQKPGSSPKPWIYATSNLASGVPVRFSGSGSGTSYSLTISRVEAEDAATYYCQQWTSNPPTFGGGTKLEIK
B2: h12H7-IgG1 (antibody, V domains shown)
VH: QVQLVQSGAEVKKPGASVKVSCKASDYTFTSYAGKWVRQAPGQGLEWIGAIPTKGNDTSYNQFLKGRVTMTADTSTSTVYMELSSLRSEDTAVYYCAKGIDGCNFDYWGQGTTVTVSS
VL: DIQMTQSPSSVSASVGDRVTITCKASQRVATGVAWYQQKPGKAPKALIYSAIGNRTGVPSRFSGSGSGTDFTLTISSLQPEDFATYYCQQASKIDAYPTFGQGTKLEIK

Biological target: T1, 人CD20 (human CD20) (human, UniProt P11836 1-297, limits assumed)
T1 construct: also called 人CD20蛋白; 抗原
T1 sequence (looked up): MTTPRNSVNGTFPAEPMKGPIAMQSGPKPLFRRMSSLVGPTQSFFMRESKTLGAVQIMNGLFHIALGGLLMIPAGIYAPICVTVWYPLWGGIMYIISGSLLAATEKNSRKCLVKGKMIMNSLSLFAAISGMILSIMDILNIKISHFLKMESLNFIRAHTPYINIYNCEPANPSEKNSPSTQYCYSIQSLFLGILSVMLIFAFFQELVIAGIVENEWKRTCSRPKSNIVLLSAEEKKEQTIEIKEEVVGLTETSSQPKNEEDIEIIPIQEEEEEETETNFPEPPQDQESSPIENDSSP
Test: SPR (CM5 chip, antibody captured by anti-human capture antibody, antigen as analyte from 10 nM)

| Binder | Kd [nM] | koff [s⁻¹] | kon [M⁻¹ s⁻¹] |
| --- | --- | --- | --- |
| B1 | 5.46 | 0.000345 | 63100 |
| B2 | 0.307 | 4.21e-05 | 137000 |
